Laboratory results: patent publication US20110009474A1, “SIRTUIN BASED METHODS AND COMPOSITIONS FOR TREATING BETA-CATENIN-RELATED CONDITIONS” (President and Fellows of Harvard College, priority 2007, published 2011)

Target: endogenous β-catenin (human) (UniProt P35222)
Assay: cell-based or functional assay

Sequence of endogenous β-catenin (human) (P35222 2-781 limits assumed): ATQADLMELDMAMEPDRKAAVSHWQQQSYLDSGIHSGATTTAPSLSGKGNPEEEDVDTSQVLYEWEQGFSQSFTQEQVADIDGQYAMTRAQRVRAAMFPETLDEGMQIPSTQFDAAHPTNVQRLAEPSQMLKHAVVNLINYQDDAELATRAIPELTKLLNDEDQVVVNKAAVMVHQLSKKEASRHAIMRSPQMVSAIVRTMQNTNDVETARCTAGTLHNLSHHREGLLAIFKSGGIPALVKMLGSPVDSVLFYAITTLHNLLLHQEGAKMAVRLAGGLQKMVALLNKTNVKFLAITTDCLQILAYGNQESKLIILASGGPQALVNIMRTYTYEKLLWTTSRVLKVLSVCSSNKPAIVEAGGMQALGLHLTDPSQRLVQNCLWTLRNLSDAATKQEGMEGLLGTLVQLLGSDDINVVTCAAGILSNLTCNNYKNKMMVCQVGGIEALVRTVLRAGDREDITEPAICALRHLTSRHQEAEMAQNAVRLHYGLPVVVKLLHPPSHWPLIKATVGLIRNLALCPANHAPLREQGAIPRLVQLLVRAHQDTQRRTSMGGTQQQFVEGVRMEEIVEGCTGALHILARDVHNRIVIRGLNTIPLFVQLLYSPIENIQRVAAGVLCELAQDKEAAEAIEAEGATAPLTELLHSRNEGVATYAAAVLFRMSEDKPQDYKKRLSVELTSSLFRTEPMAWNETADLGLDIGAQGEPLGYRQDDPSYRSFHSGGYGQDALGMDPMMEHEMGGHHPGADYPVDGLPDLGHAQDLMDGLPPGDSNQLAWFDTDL

- fold decrease in Super8XTopflash-Luciferase-PEST reporter activity in DLD1 cells: 2 fold
Substance: SIRT1 overexpressed from pBABE-Puro-hSir2(SIRT1) (from UniProt Q96EB6 2-747)
